US7371828

T1: MBP from bovine brain (Sigma), P02687
T1 chain: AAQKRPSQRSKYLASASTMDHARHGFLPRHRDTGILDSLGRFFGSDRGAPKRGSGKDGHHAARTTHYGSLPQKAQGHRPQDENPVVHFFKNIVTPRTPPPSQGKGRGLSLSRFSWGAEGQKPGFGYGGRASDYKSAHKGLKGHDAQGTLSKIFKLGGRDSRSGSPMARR


Molecular target: T1, MBP from bovine brain (Sigma), P02687

Protein	MBP kinase activity (32P incorporation in MBP-containing polyacrylamide gel)	MBP phosphorylation assay
human ERK5 (hERK5) wild type protein (protein) MSSPPPGGSGFYRQEVTKTAWEVRAVYRDLQPVGSGAYGAVCSAVDGRTGAKVAIKKLYRPFGSELFAKLAYRELRLLKHMRHENVIGLLDVFTPDETLDDFTDFYLVMPFMGTDLGKLMKHEKLGEDRIQFLVYQMMKGLRYIHAAGIIHRDLKPGNLAVNEDCELKILDFGLARQADSEMTGYVVTRWYRAPEVILNWIAYTQTVDIWSVGCIMAEMITGKTLFKGSDHLDQLKEIMKVTGTPPAEFVQRLQSDEAKNYMKGLPELEKKDFASILTNASPLAVNLLEKMLVLDADIRLTAGEFLSHPYFESLHDTEDEPQVQKYDDSFDYFDRTLDEWKPCYLQRGAQLQASPAAGGQGLQGDASVKISGLRGGSEDHLHLPPERGLSLPP	A predominant signal is observed at 56 kD; A weaker signal at the position of the 44/46 kD bands	
hERK5 Y185F mutant (protein) MSSPPPGGSGFYRQEVTKTAWEVRAVYRDLQPVGSGAYGAVCSAVDGRTGAKVAIKKLYRPFGSELFAKLAYRELRLLKHMRHENVIGLLDVFTPDETLDDFTDFYLVMPFMGTDLGKLMKHEKLGEDRIQFLVYQMMKGLRYIHAAGIIHRDLKPGNLAVNEDCELKILDFGLARQADSEMTGFVVTRWYRAPEVILNWIAYTQTVDIWSVGCIMAEMITGKTLFKGSDHLDQLKEIMKVTGTPPAEFVQRLQSDEAKNYMKGLPELEKKDFASILTNASPLAVNLLEKMLVLDADIRLTAGEFLSHPYFESLHDTEDEPQVQKYDDSFDYFDRTLDEWKPCYLQRGAQLQASPAAGGQGLQGDASVKISGLRGGSEDHLHLPPERGLSLPP	the lack of ^32P incorporation in lanes 5 and 6	this mutant is indeed kinase negative
